Reference: the supplement of paper PMC7125110
± gives the standard error. Variants at the floor of the assay were thinned out.

B1: glmS ribozyme (parent)
chain: AUAAAAGCGCCAGAACUACAGAAAUGUAGUUGACGAGGAGGAGGUUUAUCGAAUUUUCGGCGGAUGCCUCCAAA

Tests used:
Conditions in all cases: with glucosamine-6-phosphate
glucosamine-6-phosphate [1] = variants of: B1; assay: self-cleavage kobs at 40 uM GlcN6P; higher = faster cleavage; RNA array
Procedure, shortened: (§1)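 Tracking of barcoded ribozyme variants used a hybridised Cy3 probe at 37 °C, after in situ transcription by E. coli RNA polymerase on sequenced MiSeq chips. The flowed solution held 40 μM to 10 mM glucosamine-6-phosphate in HEPES/KCl/Mg(OAc)2 buffer, and imaging ran over ~14 h. kobs was taken from exponential decay fits of normalised per-tile medians, and kcat and KM from weighted Michaelis–Menten fits.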

glucosamine-6-phosphate [2] = variants of: B1; assay: self-cleavage kobs at 640 uM GlcN6P; higher = faster cleavage; RNA array
Procedure, shortened: as §1

glucosamine-6-phosphate [3] = variants of: B1; assay: self-cleavage kobs at 2500 uM GlcN6P; higher = faster cleavage; RNA array
Procedure, shortened: as §1

glucosamine-6-phosphate [4] = variants of: B1; assay: self-cleavage kobs at 160 uM GlcN6P; higher = faster cleavage; RNA array
Procedure, shortened: as §1

glucosamine-6-phosphate [5] = variants of: B1; assay: self-cleavage kobs at 10000 uM GlcN6P; higher = faster cleavage; RNA array
Procedure, shortened: as §1

Variant	self-cleavage kobs at 40 uM GlcN6P (glucosamine-6-phosphate [1]) [s⁻¹]	self-cleavage kobs at 640 uM GlcN6P (glucosamine-6-phosphate [2]) [s⁻¹]	self-cleavage kobs at 2500 uM GlcN6P (glucosamine-6-phosphate [3]) [s⁻¹]	self-cleavage kobs at 160 uM GlcN6P (glucosamine-6-phosphate [4]) [s⁻¹]	self-cleavage kobs at 10000 uM GlcN6P (glucosamine-6-phosphate [5]) [s⁻¹]
C8A A14G U57C	< 1e-05	< 1e-05	< 1e-05	–	–
G9A C58G	< 1e-05	< 1e-05	< 1e-05	< 1e-05	–
G9A C16G	< 1e-05	< 1e-05	< 1e-05	< 1e-05	–
C8G U30G G60A	< 1e-05	–	–	–	< 1e-05
C10U A64G C68A	< 1e-05	–	–	–	–
C8A C67G C68G	5.09e-05 ± 1.9e-05	0.000231 ± 5.6e-05	–	–	4.91e-05 ± 1.2e-05
C8A G29A G51U	< 1e-05	–	–	–	< 1e-05
C8A U69G	8.97e-05 ± 2.7e-05	0.000846 ± 0.00027	0.000592 ± 0.00028	–	0.000773 ± 0.00027
C10A C11U U69G	4.43e-05 ± 2.1e-05	–	–	–	5.88e-05 ± 1.5e-05
C8U U30G A36G C68U	< 1e-05	–	–	< 1e-05	–
G7U A36G	< 1e-05	< 1e-05	< 1e-05	–	< 1e-05
G7U A14G G32C A39U	< 1e-05	–	–	–	–
G9U A39U	< 1e-05	–	–	–	–
G7U U46C C70G	< 1e-05	–	< 1e-05	–	< 1e-05
C8A G62C	< 1e-05	< 1e-05	< 1e-05	–	< 1e-05
C10A A36U	< 1e-05	< 1e-05	< 1e-05	< 1e-05	< 1e-05
G9A G13C U45G U57A	< 1e-05	–	–	–	< 1e-05
C8G U31C G35C	< 1e-05	–	–	–	< 1e-05
C8A G37A	< 1e-05	–	–	–	< 1e-05
C8A C50U G51C A53C U65A	< 1e-05	< 1e-05	–	–	–
C10G G40A	< 1e-05	< 1e-05	< 1e-05	–	< 1e-05
C10A C50G G63C	0.000128 ± 3.3e-05	–	7.48e-05 ± 2.8e-05	–	4.91e-05 ± 1.8e-05
C8U G9C G35U C61G	< 1e-05	–	–	–	–

Variant	self-cleavage kobs at 40 uM GlcN6P (glucosamine-6-phosphate [1]) [s⁻¹]	self-cleavage kobs at 640 uM GlcN6P (glucosamine-6-phosphate [2]) [s⁻¹]	self-cleavage kobs at 2500 uM GlcN6P (glucosamine-6-phosphate [3]) [s⁻¹]	self-cleavage kobs at 160 uM GlcN6P (glucosamine-6-phosphate [4]) [s⁻¹]	self-cleavage kobs at 10000 uM GlcN6P (glucosamine-6-phosphate [5]) [s⁻¹]
C8U G32C	< 1e-05	< 1e-05	< 1e-05	< 1e-05	< 1e-05
C8U C58U C67U U69C	0.00084 ± 0.00041	–	–	–	0.000669 ± 0.00018
C8U G13U	< 1e-05	< 1e-05	< 1e-05	–	< 1e-05
C8U C16U U46A G63A	< 1e-05	–	–	–	< 1e-05
C8U A14G G37A A39U G40U U47A C58G U65G C70U	< 1e-05	–	< 1e-05	–	–
C8U U30C	< 1e-05	< 1e-05	< 1e-05	< 1e-05	< 1e-05
C10G G43U U65A	< 1e-05	–	< 1e-05	–	–
G9A G35U	< 1e-05	< 1e-05	–	< 1e-05	–
G9C C70U	< 1e-05	< 1e-05	< 1e-05	< 1e-05	< 1e-05
C10A A64U	< 1e-05	< 1e-05	< 1e-05	–	< 1e-05
C8U C10G	< 1e-05	< 1e-05	–	–	< 1e-05
C10U G43U	< 1e-05	< 1e-05	< 1e-05	< 1e-05	< 1e-05
G7C G59C	< 1e-05	< 1e-05	< 1e-05	< 1e-05	< 1e-05
G7C U31C	< 1e-05	–	–	< 1e-05	–
C10U G32A G51C C67U C71U	< 1e-05	–	< 1e-05	–	–
C10A A36U C68G	8.85e-05 ± 2.9e-05	–	–	–	6.62e-05 ± 2.1e-05
G7C G37U U47C G59U G66U C70U	< 1e-05	–	–	< 1e-05	< 1e-05
C10A C16G U31G G38A C61U	< 1e-05	–	–	–	< 1e-05
C8G C16A A42U U65A	< 1e-05	–	–	–	< 1e-05
C10U G40U U49A	< 1e-05	< 1e-05	–	–	–
C10U G13U	< 1e-05	< 1e-05	< 1e-05	< 1e-05	< 1e-05
C8A C10A G44U U46A C67A	< 1e-05	–	< 1e-05	–	–
G7U G59U	< 1e-05	–	< 1e-05	< 1e-05	< 1e-05

Variant	self-cleavage kobs at 40 uM GlcN6P (glucosamine-6-phosphate [1]) [s⁻¹]	self-cleavage kobs at 640 uM GlcN6P (glucosamine-6-phosphate [2]) [s⁻¹]	self-cleavage kobs at 2500 uM GlcN6P (glucosamine-6-phosphate [3]) [s⁻¹]	self-cleavage kobs at 160 uM GlcN6P (glucosamine-6-phosphate [4]) [s⁻¹]	self-cleavage kobs at 10000 uM GlcN6P (glucosamine-6-phosphate [5]) [s⁻¹]
G9C U45G	< 1e-05	< 1e-05	< 1e-05	< 1e-05	–
G9U A12U A33G G40U	< 1e-05	–	–	–	–
C10A C34G A42G C70G	< 1e-05	–	–	–	< 1e-05
C8G A33U	< 1e-05	< 1e-05	< 1e-05	< 1e-05	< 1e-05
C8U A52G G63U	< 1e-05	–	–	–	< 1e-05
G9U G41C A42U G44A	< 1e-05	< 1e-05	< 1e-05	< 1e-05	–
C8U C68G	0.000619 ± 0.00023	–	–	–	0.000231 ± 5.8e-05
G9C G41C	< 1e-05	< 1e-05	< 1e-05	< 1e-05	< 1e-05
C8G A36U G60C	< 1e-05	–	–	–	< 1e-05
G9U A52G	< 1e-05	–	–	< 1e-05	< 1e-05
C10G A14C C70U	< 1e-05	–	–	–	–
C8A G38C	< 1e-05	< 1e-05	–	< 1e-05	< 1e-05
G9U A36U	< 1e-05	< 1e-05	–	–	< 1e-05
G9U A36C	< 1e-05	< 1e-05	< 1e-05	–	< 1e-05
C8G G41U	< 1e-05	< 1e-05	< 1e-05	< 1e-05	< 1e-05
C8U A52U C58U A64C C70U	< 1e-05	–	< 1e-05	< 1e-05	–
C8G U31C A39G	< 1e-05	–	–	–	–
C8G A48U C71G	< 1e-05	–	–	–	< 1e-05
C10G A12U U30G	< 1e-05	–	–	–	–
G9U G60U C71G	< 1e-05	–	–	–	–
G9A C11A	< 1e-05	–	–	< 1e-05	–
C8U U57G	< 1e-05	–	< 1e-05	–	–
G7C G38U	< 1e-05	< 1e-05	–	< 1e-05	< 1e-05

Variant	self-cleavage kobs at 40 uM GlcN6P (glucosamine-6-phosphate [1]) [s⁻¹]	self-cleavage kobs at 640 uM GlcN6P (glucosamine-6-phosphate [2]) [s⁻¹]	self-cleavage kobs at 2500 uM GlcN6P (glucosamine-6-phosphate [3]) [s⁻¹]	self-cleavage kobs at 160 uM GlcN6P (glucosamine-6-phosphate [4]) [s⁻¹]	self-cleavage kobs at 10000 uM GlcN6P (glucosamine-6-phosphate [5]) [s⁻¹]
G9A U45C	< 1e-05	–	–	< 1e-05	< 1e-05
C8A G35C A48C G60A	< 1e-05	–	–	–	–
C10G G43A A48G U54G C58A A64U	< 1e-05	< 1e-05	< 1e-05	–	< 1e-05
C8A G13A	< 1e-05	< 1e-05	< 1e-05	< 1e-05	< 1e-05
C10G G32U C58A C70G	5.06e-05 ± 1.8e-05	–	–	–	–
C8A A48C G59U	< 1e-05	–	–	–	< 1e-05
G9U A42U	< 1e-05	< 1e-05	< 1e-05	< 1e-05	–
C8A G40A	< 1e-05	< 1e-05	< 1e-05	–	–
G9U C16U A52G C67G	0.000158 ± 3.7e-05	–	–	–	0.000546 ± 0.00017
C8G A15G	< 1e-05	< 1e-05	< 1e-05	< 1e-05	< 1e-05
C8A A15G	< 1e-05	< 1e-05	< 1e-05	< 1e-05	< 1e-05
C8A A15C	< 1e-05	< 1e-05	< 1e-05	< 1e-05	–
G9A C10G G13U A48U G51U G66C	< 1e-05	–	–	–	–
C10U G44U U45A G59C C67G	< 1e-05	–	–	–	< 1e-05
G9C U56G	< 1e-05	< 1e-05	< 1e-05	< 1e-05	< 1e-05
C8G A14G U55G	< 1e-05	–	< 1e-05	–	< 1e-05
G9A C34G U46C C61U G62U	< 1e-05	–	–	–	–
G7U C8U	< 1e-05	< 1e-05	< 1e-05	< 1e-05	< 1e-05
C10U C16G G29U	< 1e-05	–	–	–	–
C10G G13A	< 1e-05	< 1e-05	–	< 1e-05	–
G9U G29A U30A C67U	< 1e-05	–	–	–	–
C8G U56G C70U C71A	< 1e-05	< 1e-05	< 1e-05	< 1e-05	–
